According to patent publication US20220409711A1 (published 2022):

Target: T1, Hormad1 peptide on HLA-A*02:01 (human)
T1 peptide: YLDDLCVKI
Test: multimer staining

- binding result: recognises
B1: Hormad1 CTL A12 TCR (TRAV4*01 F, TRBV13*01 F) (TCR, V domains shown)
Valpha: LAKTTQPISMDSYEGQEVNITCSHNNIATNDYITWYQQFPSQGPRFIIQGYKTKVTNEVASLFIPADRKSSTLSLPRVSLSDTAVYYCLVGARGTALIFGKGTTLSVSS
Vbeta: AAGVIQSPRHLIKEKRETATLKCYPIPRHDTVYWYQQGPGQDPQFLISFYEKMQSDKGSIPDRFSAQQFSDYHSELNMSSLELGDSALYFCASSPTGQGSYEQYFGPGTRLTVT
